Here are results for 39 sequences from the Immune Epitope Database (IEDB).

A word on the Kd: it is the equilibrium constant for the complex coming apart.

For one test, the target named is HLA-A*24:02. Put plainly: IEDB peptide-MHC binding, purified MHC/competitive/radioactivity; filed as Kd, often an IC50 or EC50 that approximates it; ≥ and ≤ were set here for values at or beyond the usual limits of such assays.
For a further test, the target named is HLA-A*30:01. The description is as above.
Another test has as its target HLA-A*26:01. Described as above.
In the next test the target is HLA-A*30:02. Described as above.
The target of the next test is HLA-B*57:01. The test can be described thus: IEDB peptide-MHC binding, purified MHC/direct/fluorescence; filed as Kd, often an IC50 or EC50 that approximates it; ≥ and ≤ were set here for values at or beyond the usual limits of such assays.
The next test concerns the target HLA-B*58:01. Described as above.
The target in the next test is HLA-B*40:01. Put plainly: IEDB peptide-MHC binding, purified MHC/competitive/radioactivity; filed as Kd, often an IC50 or EC50 that approximates it; ≥ and ≤ were set here for values at or beyond the usual limits of such assays.
Another test has as its target HLA-B*44:02. The description is as above.
For the next test, the target named is HLA-B*44:03. Described as above.
A further test addresses HLA-A*01:01. The description is as above.
Test [1] deals with HLA-B*15:01. The test is described as above.
Test [2] deals with HLA-B*15:01. The test can be described thus: IEDB peptide-MHC binding, purified MHC/competitive/fluorescence; filed as Kd, often an IC50 or EC50 that approximates it; ≥ and ≤ were set here for values at or beyond the usual limits of such assays.
A further test has as its target HLA-A*03:01. Put plainly: IEDB peptide-MHC binding, purified MHC/competitive/radioactivity; filed as Kd, often an IC50 or EC50 that approximates it; ≥ and ≤ were set here for values at or beyond the usual limits of such assays.
The target in the next test is HLA-A*11:01. The description is as above.
In a further test the target is HLA-A*68:01. The test is described as above.
A further test has as its target HLA-A*29:02. The description is as above.
Another test addresses HLA-A*31:01. Described as above. The settings on record: source organism: Vaccinia virus WR.
The target in a further test is HLA-A*33:01. The test is described as above. The settings on record: source organism: Vaccinia virus WR.
For another test, the target named is HLA-B*53:01. The test is described as above. Particulars: source organism: Dengue virus 4 Philippines/H241/1956.
The target in a further test is HLA-B*46:01. Put plainly: IEDB peptide-MHC binding, purified MHC/competitive/fluorescence; filed as Kd, often an IC50 or EC50 that approximates it; ≥ and ≤ were set here for values at or beyond the usual limits of such assays. The settings on record: source organism: Influenza A virus.
The target of the next test is HLA-A*02:01. The description is as above. The settings on record: source organism: Escherichia coli B171.
A further test deals with HLA-A*23:01. Put plainly: IEDB peptide-MHC binding, purified MHC/competitive/radioactivity; filed as Kd, often an IC50 or EC50 that approximates it; ≥ and ≤ were set here for values at or beyond the usual limits of such assays. Particulars: source organism: Mammarenavirus juninense.
The mark [3] stands for this setting: source organism: Dengue virus 2 Jamaica/1409/1983.
Setting [4] is: source organism: Vaccinia virus WR.
Setting [5] is: source organism: Giardia lamblia ATCC 50803.
Where [6] appears, read: source organism: Dengue virus 1 Singapore/S275/1990.
[7] abbreviates: source organism: Dengue virus 1 Brazil/97-11/1997.
Where [8] appears, read: source organism: Vaccinia virus Copenhagen.
Setting [9] is: source organism: Dengue virus 4 Philippines/H241/1956.
[10] abbreviates: source organism: Yersinia pestis Antiqua.
Setting [11] is: source organism: Mammarenavirus juninense.

As for WYAQIQPHWI, the Kd with HLA-A*24:02 (setting [3]) was 49.3 nM.

Regarding SAKNSWLNL, the Kd with HLA-A*30:01 (setting [4]) amounted to 0.574 nM.

Consider GVPLLAIGCY, for which the Kd was 128 nM in the test with HLA-A*26:01 (setting [3]) and 3350 nM with HLA-A*30:02 (setting [3]).

For the sequence SARGLCNTW, the Kd with HLA-B*57:01 (setting [5]) came out at 112 nM; with HLA-B*58:01 (setting [5]), 56.5 nM.

Turning to AENHHHATML, the figures for the Kd with HLA-B*40:01 (setting [6]), with HLA-B*44:02 (setting [6]) and with HLA-B*44:03 (setting [6]) were 39.9 nM, 55.7 nM and 189 nM, respectively.

Turning to NGVVTTSGTY, the Kd with HLA-A*30:02 (setting [7]) turned out to be 694 nM.

Turning to LYAVATTFV, the Kd with HLA-A*24:02 (setting [3]) was 66.4 nM.

Take EAEPPFGDSY: the Kd in the test with HLA-A*01:01 (setting [3]) was 1770 nM; with HLA-A*26:01 (setting [3]) it was 1300 nM.

Turning to GTIMVSEHF, the Kd in the test with HLA-B*15:01 [1] (setting [4]) turned out to be 57.4 nM.

HVKAFYKFI: the Kd with HLA-A*30:01 (setting [4]) was 0.346 nM.

In the case of SEIPNLDII, the results for the Kd with HLA-B*40:01 (setting [3]) and with HLA-B*44:03 (setting [3]) were 112 nM and 60.4 nM, respectively.

As for KVVRLTPQV, in the test with HLA-A*30:01 (setting [4]), the Kd came out at 178 nM.

For LGFDVVAYF, in the test with HLA-B*15:01 [1] (setting [8]), the Kd amounted to 67.3 nM.

On to FEEYKRSGI, for which, in the test with HLA-B*40:01 (setting [9]), the Kd was 1290 nM.

FLCDDTITY: in the test with HLA-B*15:01 [2] (source organism: West Nile virus), the Kd amounted to 298 nM.

VTFKNPHAK: the Kd with HLA-A*03:01 (setting [3]) is 9.59 nM; with HLA-A*11:01 (setting [3]) it was 137 nM; with HLA-A*30:01 (setting [3]), 278 nM; with HLA-A*68:01 (setting [3]), 133 nM.

Consider MTSRMLLNRF, for which the figures for the Kd with HLA-A*01:01 (setting [7]) and with HLA-A*26:01 (setting [7]) were 12300 nM and 2180 nM, respectively.

As for LSKNTFYLF, the Kd in the test with HLA-B*15:01 [1] (setting [4]) worked out at 14.2 nM.

Consider SYAQMWSLMY, for which the Kd in the test with HLA-A*30:02 (source organism: Dengue virus 2 Peru/IQT2913/1996) is at least 69700 nM.

In the case of VSYSTFCLG, in the test with HLA-B*15:01 [1] (setting [4]), the Kd stood at 710 nM.

VSENTGMGMY: the Kd with HLA-A*03:01 (setting [4]) was 1620 nM; with HLA-A*11:01 (setting [4]), 2360 nM; with HLA-A*29:02 (setting [4]) it was 34 nM; with HLA-A*31:01, 13400 nM; with HLA-A*33:01, at least 24200 nM; in the test with HLA-A*68:01 (setting [4]), at least 36900 nM.

For LGRANITHF, the Kd with HLA-B*15:01 [1] (setting [4]) is 6.73 nM.

Take RASGSYISG: the Kd in the test with HLA-A*30:01 (setting [4]) came to 589 nM.

In the case of LIIKLLLPG, the Kd with HLA-B*15:01 [1] (setting [4]) worked out at 1120 nM.

Regarding RTHFSQPSG, the Kd with HLA-A*30:01 (setting [4]) was found to be 14.6 nM.

Turning to EFFLMVLLI, the Kd with HLA-A*24:02 (setting [7]) was at least 40100 nM.

Consider MTDKTPVHSW, for which the Kd is 1410 nM with HLA-B*44:02 (setting [9]) and 891 nM in the test with HLA-B*53:01.

For the sequence RMAILGETAW, the Kd in the test with HLA-B*15:01 [1] (setting [9]) was 253 nM; in the test with HLA-B*44:02 (setting [9]), 1620 nM.

Regarding RKKARSTPFN, in the test with HLA-A*30:01 (setting [3]), the Kd worked out at 3820 nM.

In the case of RDKRSVALA, the Kd with HLA-A*30:01 (setting [7]) was 1990 nM.

Turning to NPAQEDDQY, the Kd in the test with HLA-B*53:01 came to 746 nM.

FQNVNKITY: the Kd in the test with HLA-B*15:01 [2] (source organism: Influenza A virus) stood at 154 nM; in the test with HLA-B*46:01, 3000 nM.

As to ASSALDAHF, the Kd in the test with HLA-B*57:01 (setting [10]) was 396 nM; with HLA-B*58:01 (setting [10]) it was 4.4 nM.

Take LVRSTVSSI: in the test with HLA-B*15:01 [1] (setting [8]), the Kd is 527 nM.

As for EIKTGISSF, the Kd with HLA-B*15:01 [1] (setting [4]) stood at 89.9 nM.

Regarding VQYRGLYQI, the Kd with HLA-A*02:01 is 125 nM; with HLA-B*15:01 [2] (source organism: Escherichia coli B171), 107 nM.

Regarding AEHTGREIV, the Kd with HLA-B*40:01 (setting [3]) was determined as 62.4 nM.

Turning to EMVCFHEFL, the Kd in the test with HLA-A*23:01 was 1990 nM; in the test with HLA-A*24:02 (setting [11]), 16900 nM; in the test with HLA-A*29:02 (setting [11]), at least 10000 nM.

Regarding VEETNMITLL, the Kd in the test with HLA-B*40:01 (source organism: Dengue virus 4 Dominica/814669/1981) was found to be 25 nM.
